The target in test [1] is HIV-1 AD8 envelope glycoproteins (HIV-1, strain AD8).
Test [2] addresses Full-length HIV-1 YU2 envelope glycoproteins (HIV-1, strain YU2) (UniProt P35961).

Consider “Four-domain soluble CD4 (domain or fragment)”, for which the IC50 of sCD4 for inhibition of infection of CD4+CCR5+ Cf2Th cells by recombinant HIV-1(AD8), luciferase activity in test [1] amounted to 80 nM. Besides, the IC50 of sCD4 for inhibition of infection of CD4+CCR5+ Cf2Th cells by recombinant HIV-1(YU2), luciferase activity in test [2] was 12 nM.

The values above are taken from paper PMC2655723.
